Assay results reported in patent US20180327500A1 (SYMPHOGEN A S, published 2018).

T1: LS2
T1 construct: human/mouse chimera on transfected HEK293 cells
T1 MET ECD-SV5-GPI fusion: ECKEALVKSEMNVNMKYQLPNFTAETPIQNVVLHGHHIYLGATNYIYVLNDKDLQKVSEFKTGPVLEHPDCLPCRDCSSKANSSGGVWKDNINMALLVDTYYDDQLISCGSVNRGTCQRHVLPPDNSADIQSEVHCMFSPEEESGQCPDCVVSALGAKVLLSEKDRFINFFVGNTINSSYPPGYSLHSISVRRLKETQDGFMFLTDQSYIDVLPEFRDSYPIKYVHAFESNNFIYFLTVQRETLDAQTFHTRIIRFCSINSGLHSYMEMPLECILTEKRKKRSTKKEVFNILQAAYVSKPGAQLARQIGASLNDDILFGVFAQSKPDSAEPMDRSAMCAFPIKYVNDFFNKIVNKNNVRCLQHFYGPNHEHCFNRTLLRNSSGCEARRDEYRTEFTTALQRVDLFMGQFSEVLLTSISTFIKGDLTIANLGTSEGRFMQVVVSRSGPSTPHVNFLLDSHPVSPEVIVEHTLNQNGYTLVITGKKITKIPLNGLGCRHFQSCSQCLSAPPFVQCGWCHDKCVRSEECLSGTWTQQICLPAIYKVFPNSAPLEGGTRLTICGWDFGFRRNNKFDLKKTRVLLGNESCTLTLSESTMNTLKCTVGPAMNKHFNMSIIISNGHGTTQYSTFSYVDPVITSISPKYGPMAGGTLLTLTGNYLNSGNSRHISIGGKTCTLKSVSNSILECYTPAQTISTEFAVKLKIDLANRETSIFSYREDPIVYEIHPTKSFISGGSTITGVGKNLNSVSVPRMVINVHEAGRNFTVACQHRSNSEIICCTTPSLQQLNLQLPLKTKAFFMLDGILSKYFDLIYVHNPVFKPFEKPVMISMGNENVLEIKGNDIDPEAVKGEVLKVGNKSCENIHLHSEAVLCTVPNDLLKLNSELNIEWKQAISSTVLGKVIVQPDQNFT

T2: LS3
T2 construct: human/mouse chimera on transfected HEK293 cells; also called AA 25-312
T2 MET ECD-SV5-GPI fusion: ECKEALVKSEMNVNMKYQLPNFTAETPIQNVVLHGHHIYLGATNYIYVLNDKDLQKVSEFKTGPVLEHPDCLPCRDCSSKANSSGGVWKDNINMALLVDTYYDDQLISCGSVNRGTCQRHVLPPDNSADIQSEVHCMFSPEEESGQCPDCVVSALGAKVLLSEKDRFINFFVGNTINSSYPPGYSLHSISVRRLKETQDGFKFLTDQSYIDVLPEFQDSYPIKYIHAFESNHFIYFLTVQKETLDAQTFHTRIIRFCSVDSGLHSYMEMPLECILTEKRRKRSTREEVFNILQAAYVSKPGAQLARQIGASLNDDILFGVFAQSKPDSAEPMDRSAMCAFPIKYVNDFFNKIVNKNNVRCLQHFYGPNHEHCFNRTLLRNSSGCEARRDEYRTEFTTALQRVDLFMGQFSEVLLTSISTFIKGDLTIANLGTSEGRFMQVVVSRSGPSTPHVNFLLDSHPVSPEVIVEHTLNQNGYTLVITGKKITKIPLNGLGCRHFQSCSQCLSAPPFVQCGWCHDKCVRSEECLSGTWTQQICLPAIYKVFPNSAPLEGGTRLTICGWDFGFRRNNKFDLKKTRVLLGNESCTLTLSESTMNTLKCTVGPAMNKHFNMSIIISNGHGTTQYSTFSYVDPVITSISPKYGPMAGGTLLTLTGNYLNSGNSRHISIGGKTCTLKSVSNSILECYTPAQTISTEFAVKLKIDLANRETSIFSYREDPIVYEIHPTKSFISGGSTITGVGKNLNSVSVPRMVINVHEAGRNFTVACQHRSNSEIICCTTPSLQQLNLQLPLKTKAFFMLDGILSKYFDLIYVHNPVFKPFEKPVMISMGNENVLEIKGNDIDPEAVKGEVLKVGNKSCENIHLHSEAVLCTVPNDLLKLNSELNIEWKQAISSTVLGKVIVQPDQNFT

T3: Mouse MET
T3 construct: on transfected HEK293 cells; also called murine MET ECD-SV5-GPI
T3 MET ECD-SV5-GPI fusion: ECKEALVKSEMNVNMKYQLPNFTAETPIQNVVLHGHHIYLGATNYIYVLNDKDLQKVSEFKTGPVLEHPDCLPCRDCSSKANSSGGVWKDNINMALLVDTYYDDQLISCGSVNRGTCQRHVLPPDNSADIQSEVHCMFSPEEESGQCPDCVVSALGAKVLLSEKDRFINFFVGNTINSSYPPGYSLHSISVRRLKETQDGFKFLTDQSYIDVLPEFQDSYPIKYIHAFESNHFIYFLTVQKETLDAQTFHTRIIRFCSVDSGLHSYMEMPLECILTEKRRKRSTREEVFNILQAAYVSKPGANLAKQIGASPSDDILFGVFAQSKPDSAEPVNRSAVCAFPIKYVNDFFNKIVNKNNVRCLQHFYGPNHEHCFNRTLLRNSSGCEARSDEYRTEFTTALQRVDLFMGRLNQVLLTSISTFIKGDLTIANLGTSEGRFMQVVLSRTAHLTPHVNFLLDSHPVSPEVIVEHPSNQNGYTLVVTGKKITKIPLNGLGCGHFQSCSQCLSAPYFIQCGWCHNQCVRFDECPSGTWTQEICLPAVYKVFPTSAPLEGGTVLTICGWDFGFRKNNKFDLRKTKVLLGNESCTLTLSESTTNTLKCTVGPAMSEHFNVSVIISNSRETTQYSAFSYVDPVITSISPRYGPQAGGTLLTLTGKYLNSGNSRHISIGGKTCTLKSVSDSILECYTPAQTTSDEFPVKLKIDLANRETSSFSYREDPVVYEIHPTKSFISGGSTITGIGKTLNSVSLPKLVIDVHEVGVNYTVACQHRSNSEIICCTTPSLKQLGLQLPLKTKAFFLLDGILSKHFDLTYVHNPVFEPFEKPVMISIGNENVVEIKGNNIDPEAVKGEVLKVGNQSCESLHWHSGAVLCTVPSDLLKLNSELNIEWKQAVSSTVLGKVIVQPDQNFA


Tests used:
Test in all cases: flow cytometry on transfected HEK293 cells;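 further: antibodies applied at 50 µg/ml, binding called specific when fluorescence exceeds the mean signal on a negative control chicken or mouse MET construct plus four SD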
LS2 = target: T1, LS2
Experimental: (§1) Cut-off values defined as the average fluorescence signal of all antibodies tested at 50 μg/ml to the negative control chicken or mouse MET construct+four standard deviations were employed to discriminate background binding from specific binding for the domain exchange or blade exchange constructs.

LS3 = target: T2, LS3
Experimental: as §1

Mouse MET = target: T3, Mouse MET
Experimental: as §1

| binding result (LS2) | binding result (LS3) | binding result (Mouse MET) | Binder |
| --- | --- | --- | --- |
| no binding (tested: 50 µg/ml) | no binding (tested: 50 µg/ml) | no binding (tested: 50 µg/ml) | humanized antibody 9338 (antibody, human IgG1, kappa, V domains shown, also called Hu9338; hu9338) VH: QVQLVQSGAEVKKPGSSVKVSCKASGYTFTSYWMHWVRQAPGQGLEWMGYINPSSGHIENNQKFKDRVTITADKSTSTAYMELSSLRSEDTAVYYCARGRFAYWGQGTLVTVSS VL: EIVLTQSPATLSLSPGERATLSCSASSSVSSGYLYWYQQKPGQAPRLLIYSTSNLASGIPARFSGSGSGTDFTLTISSLEPEDFAVYYCHQWSSYPFTFGSGTKLEIKR |
| no binding (tested: 50 µg/ml) | no binding (tested: 50 µg/ml) | no binding (tested: 50 µg/ml) | humanized antibody 9006 (antibody, human IgG1, kappa, V domains shown, also called Hu9006; hu9006) VH: QVQLVQSGSELKKPGASVKVSCKASGYTFTNFRMNWVKQAPGQGLKWMGWINTYTGEPTYVDDLKGRFVFSLDTSVSTAYLQISSLKAEDTAVYYCARKGIARAMDYWGQGTTVTVSS VL: DIVMTQSPDSLAVSLGERATINCKSSQSLLDSGNQKNYLAWYQQKPGQPPKLLIFGASTRESGVPDRFSGSGSGTDFTLTISSLQAEDVAVYYCQNDHSYPYTFGQGTKLEIKR |
